Experimental findings from publication doi:10.1101/2020.10.15.340570, “Coordination of RNA and protein condensation by the P granule protein MEG-3” are described below.

This data set has as its target T1, MEG-3 HMGL- (Caenorhabditis elegans, UniProt Q9TXM1 1-862, F705A;Y708A;Y713A;N725A).
T1 sequence: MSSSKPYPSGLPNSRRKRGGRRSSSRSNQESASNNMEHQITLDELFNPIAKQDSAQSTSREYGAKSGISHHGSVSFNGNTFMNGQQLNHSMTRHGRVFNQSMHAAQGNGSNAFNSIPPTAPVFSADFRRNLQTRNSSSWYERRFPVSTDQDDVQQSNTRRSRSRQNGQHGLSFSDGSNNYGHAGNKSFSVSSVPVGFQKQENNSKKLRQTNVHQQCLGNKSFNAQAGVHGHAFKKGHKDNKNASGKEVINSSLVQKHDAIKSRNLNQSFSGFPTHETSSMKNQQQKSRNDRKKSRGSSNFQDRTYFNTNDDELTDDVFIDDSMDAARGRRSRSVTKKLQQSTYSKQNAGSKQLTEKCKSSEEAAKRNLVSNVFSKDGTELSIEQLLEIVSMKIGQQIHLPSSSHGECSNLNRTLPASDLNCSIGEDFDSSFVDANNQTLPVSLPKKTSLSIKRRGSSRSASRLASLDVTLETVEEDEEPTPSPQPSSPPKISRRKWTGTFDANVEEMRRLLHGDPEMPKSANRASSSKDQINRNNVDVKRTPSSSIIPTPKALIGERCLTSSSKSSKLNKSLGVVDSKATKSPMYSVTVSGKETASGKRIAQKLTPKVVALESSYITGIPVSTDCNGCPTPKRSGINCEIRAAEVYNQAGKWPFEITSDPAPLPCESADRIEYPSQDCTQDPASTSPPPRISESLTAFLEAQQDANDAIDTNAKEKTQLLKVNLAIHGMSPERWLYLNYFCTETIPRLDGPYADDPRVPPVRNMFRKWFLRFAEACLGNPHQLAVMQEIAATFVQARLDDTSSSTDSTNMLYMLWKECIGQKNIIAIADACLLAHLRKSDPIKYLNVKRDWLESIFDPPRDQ
The data set is described as follows: filter binding; high affinity, similar to wild type; Kd only in figure; 50 nM RNA, 3.75 mM HEPES (stock pH 7.4), 150 mM NaCl, 0.9 mM beta-mercaptoethanol, 1.5% glycerol, 10 mM Tris HCl, 30 min, room temperature. The following applies: protein: recombinant; tags: N-terminal 6xHis (pET28a); label: 3' fluorescein; single strand.

B1: 30U RNA (poly-U30) (ssRNA)
RNA: UUUUUUUUUUUUUUUUUUUUUUUUUUUUUU
As for B1, the binding result was “binds”.
